# Data: the supplement of paper PMC6379048
# Legend:
# Assay in all cases: EC50 of free RNA motif oligo competing protein binding to immobilised probe
# [1] = biological target: RPS5 (UniProt P46782)
# Summary of the method: (§1)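 HEK293-FT lysate (2.5 mg protein/well) was pre-incubated 1 h at 4°C with free RNA oligos (0 nM to 30 μM), then 30 min at 4°C with the same 5′-amino-C6 oligos coupled to NHS-Sepharose beads. Bound proteins were quantified by label-free LC-MS/MS in three biological replicates and two independent experiments, and normalised to the water control. EC50 came from a four-parameter log-logistic fit; Kd is EC50 times a protein-dependent depletion factor.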
# [2] = biological target: MRPL17 (UniProt Q9NRX2)
# Summary of the method: as §1
# [3] = biological target: MRPS18A (UniProt Q9NVS2)
# Summary of the method: as §1
# [4] = biological target: T1, U2AF1 (UniProt Q01081)
# T1 sequence: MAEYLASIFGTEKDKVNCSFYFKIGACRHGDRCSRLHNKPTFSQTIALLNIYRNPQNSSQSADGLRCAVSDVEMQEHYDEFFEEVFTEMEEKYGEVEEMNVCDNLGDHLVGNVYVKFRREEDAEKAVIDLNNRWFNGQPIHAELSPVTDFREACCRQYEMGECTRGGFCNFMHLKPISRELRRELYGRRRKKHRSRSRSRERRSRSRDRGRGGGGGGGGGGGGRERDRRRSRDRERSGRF
# Summary of the method: as §1
# [5] = biological target: T2, TSNAX (UniProt Q99598)
# T2 sequence: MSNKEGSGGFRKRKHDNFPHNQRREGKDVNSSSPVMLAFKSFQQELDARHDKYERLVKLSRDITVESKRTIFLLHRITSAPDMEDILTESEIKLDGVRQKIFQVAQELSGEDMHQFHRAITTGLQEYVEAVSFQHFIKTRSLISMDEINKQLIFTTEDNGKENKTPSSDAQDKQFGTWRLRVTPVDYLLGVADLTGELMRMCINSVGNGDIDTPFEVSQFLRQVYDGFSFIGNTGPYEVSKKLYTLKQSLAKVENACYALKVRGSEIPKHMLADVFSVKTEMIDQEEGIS
# Summary of the method: as §1
# [6] = biological target: T3, ZGPAT (UniProt Q8N5A5)
# T3 sequence: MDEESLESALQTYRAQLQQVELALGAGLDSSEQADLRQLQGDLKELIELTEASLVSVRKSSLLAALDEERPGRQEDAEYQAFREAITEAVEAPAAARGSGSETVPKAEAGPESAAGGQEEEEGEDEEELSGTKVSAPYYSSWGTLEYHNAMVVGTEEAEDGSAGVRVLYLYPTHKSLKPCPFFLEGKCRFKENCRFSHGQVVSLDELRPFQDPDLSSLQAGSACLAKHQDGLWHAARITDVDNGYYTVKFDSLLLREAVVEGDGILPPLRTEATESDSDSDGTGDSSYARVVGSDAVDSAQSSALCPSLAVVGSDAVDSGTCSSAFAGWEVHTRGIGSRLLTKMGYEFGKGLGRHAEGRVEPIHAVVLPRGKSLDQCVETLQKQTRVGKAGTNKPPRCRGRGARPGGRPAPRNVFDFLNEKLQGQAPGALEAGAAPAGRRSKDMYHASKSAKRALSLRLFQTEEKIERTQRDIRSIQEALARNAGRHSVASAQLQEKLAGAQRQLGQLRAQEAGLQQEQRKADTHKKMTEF
# Summary of the method: as §1
# [7] = biological target: CSNK2A1 (UniProt P68400)
# CSNK2A1, sequence (P68400 whole entry, looked up): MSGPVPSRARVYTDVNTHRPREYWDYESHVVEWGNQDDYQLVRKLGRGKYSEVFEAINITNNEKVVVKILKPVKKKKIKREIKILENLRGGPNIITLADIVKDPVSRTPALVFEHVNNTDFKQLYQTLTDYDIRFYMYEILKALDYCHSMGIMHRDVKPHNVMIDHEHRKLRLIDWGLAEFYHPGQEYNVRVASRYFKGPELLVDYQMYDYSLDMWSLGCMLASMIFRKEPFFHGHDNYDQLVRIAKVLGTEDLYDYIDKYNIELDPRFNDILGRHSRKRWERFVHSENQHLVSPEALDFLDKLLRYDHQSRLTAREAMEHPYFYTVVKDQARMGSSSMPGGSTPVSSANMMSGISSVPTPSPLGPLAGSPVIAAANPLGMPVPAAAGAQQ
# Summary of the method: as §1
# [8] = biological target: PTBP3 (UniProt O95758)
# PTBP3, sequence (O95758 whole entry): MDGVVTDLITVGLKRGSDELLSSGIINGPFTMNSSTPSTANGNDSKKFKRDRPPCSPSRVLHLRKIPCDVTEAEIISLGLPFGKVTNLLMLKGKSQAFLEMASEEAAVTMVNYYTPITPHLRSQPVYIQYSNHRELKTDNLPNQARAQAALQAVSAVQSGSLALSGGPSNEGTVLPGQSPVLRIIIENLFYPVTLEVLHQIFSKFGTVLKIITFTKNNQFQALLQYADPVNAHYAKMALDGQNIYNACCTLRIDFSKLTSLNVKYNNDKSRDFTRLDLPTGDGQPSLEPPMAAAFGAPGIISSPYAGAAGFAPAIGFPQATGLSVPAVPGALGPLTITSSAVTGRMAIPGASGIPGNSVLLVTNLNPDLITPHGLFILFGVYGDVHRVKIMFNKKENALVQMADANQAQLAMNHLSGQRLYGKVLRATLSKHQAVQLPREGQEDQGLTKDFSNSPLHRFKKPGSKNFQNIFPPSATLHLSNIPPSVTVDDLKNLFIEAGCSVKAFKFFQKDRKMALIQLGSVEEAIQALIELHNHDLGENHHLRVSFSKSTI
# Summary of the method: as §1
# [9] = biological target: ZCCHC11 (UniProt Q5TAX3)
# ZCCHC11, sequence (Q5TAX3 whole entry): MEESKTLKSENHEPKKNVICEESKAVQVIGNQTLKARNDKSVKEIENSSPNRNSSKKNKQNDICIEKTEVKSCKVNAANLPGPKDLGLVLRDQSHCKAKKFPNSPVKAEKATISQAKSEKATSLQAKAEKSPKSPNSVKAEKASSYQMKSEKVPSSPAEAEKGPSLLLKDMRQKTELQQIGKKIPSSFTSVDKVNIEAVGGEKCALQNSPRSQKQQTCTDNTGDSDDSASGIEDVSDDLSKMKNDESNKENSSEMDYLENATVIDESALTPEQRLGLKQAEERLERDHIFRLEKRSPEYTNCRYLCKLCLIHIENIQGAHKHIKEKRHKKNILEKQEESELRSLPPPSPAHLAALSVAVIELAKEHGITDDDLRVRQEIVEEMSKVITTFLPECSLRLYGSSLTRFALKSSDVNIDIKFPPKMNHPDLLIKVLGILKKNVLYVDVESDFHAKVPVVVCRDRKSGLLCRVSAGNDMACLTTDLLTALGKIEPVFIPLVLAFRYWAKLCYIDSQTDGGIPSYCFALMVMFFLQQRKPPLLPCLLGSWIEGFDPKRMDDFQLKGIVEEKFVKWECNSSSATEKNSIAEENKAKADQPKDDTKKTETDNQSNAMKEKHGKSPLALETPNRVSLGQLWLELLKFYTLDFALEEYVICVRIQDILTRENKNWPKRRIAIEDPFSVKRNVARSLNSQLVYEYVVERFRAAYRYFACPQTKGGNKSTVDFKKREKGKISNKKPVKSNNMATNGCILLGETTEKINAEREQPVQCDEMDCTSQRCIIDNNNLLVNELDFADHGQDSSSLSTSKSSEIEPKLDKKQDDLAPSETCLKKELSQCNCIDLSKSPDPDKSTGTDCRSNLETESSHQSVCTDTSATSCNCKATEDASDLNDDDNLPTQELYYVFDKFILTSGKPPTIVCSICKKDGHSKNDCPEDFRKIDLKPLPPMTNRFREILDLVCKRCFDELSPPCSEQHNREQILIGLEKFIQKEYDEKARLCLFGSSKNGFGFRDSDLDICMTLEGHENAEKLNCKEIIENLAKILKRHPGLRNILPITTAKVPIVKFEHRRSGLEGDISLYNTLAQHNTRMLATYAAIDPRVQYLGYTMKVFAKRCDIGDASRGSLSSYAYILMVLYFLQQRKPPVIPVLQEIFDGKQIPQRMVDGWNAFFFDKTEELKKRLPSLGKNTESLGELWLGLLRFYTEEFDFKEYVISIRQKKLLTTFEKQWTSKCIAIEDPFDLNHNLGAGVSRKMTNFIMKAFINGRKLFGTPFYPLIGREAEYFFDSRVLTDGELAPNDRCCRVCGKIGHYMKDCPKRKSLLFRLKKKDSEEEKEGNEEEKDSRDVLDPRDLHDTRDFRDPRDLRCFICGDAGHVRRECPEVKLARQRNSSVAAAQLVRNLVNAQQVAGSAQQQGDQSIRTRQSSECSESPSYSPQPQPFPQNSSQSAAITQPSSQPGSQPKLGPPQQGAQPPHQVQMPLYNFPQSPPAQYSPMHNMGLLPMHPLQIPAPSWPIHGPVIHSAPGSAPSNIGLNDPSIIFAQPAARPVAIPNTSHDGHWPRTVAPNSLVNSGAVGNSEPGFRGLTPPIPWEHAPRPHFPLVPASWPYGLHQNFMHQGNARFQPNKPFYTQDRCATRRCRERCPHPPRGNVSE
# Summary of the method: as §1
# [10] = biological target: T4, HNRNPM (UniProt P52272)
# T4 sequence: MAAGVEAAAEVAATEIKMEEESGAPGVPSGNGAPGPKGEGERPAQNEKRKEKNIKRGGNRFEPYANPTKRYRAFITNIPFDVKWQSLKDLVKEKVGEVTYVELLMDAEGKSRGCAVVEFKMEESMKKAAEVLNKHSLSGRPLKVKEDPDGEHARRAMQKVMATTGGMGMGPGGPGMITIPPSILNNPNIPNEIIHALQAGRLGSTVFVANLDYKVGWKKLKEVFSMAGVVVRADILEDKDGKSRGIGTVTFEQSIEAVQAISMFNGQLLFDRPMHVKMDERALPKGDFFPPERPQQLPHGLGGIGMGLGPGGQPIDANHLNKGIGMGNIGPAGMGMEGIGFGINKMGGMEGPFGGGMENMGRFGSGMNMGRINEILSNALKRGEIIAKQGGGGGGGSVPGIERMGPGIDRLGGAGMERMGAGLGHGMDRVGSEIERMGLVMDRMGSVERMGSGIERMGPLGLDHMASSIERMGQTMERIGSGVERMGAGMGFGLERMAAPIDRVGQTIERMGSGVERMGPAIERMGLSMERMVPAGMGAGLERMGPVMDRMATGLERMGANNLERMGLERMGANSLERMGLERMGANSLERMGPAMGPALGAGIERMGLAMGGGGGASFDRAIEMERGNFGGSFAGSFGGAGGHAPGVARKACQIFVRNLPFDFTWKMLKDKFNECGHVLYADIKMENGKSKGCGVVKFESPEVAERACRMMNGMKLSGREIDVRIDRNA
# Summary of the method: as §1
# [11] = biological target: MRPS23 (UniProt Q9Y3D9)
# Summary of the method: as §1
sequence,measurement,setting,value
CUGUCCU,EC50,[1],303 nM
same,EC50,[2],51.9 nM
same,EC50,[3],102 nM
AAUAAA,EC50,[4],1460 nM
same,EC50,[5],30.5 nM
same,EC50,[6],9600 nM
same,EC50,[7],124 nM
same,EC50,[8],6990 nM
UAUUUAU,EC50,[9],108 nM
same,EC50,[10],6800 nM
same,EC50,[11],40 nM
